These results are taken from paper PMC5934625, “A structurally conserved motif in γ-herpesvirus uracil-DNA glycosylases elicits duplex nucleotide-flipping”.

The target of this series is T1, kUNG (kUNGΔ18), uracil-DNA glycosylase (Kaposi's sarcoma-associated herpesvirus …, UniProt F5HFA1 19-255).
T1 sequence: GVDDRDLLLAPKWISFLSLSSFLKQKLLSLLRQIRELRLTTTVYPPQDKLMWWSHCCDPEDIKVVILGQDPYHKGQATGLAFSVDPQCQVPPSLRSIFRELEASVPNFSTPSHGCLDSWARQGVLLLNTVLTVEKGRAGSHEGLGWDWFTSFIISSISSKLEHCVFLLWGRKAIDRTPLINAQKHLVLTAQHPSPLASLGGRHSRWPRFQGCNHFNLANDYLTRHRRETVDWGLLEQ
Kind of series: X-ray crystallography; product complex after uracil cleavage; 100 mM Mg acetate in crystallisation; Crystallisation: protein:DNA 1:1.2, annealing buffer 20 mM Tris-HCl pH 7.4, 100 mM NaCl, 20 mM MgCl2; crystals in 100 mM sodium acetate pH 4.5, 100 mM Mg acetate, 8% PEG 8000, 16 °C. Km/Vmax of mutants (Table 3) are turnover only and left out. As to conditions: protein: recombinant; tags: N-terminal 6xHis-TEV cleaved; Ser-Ala-Ser remains; label: 5'-FAM on strand 1; 5' overhang 1 nt (strand 1); U:A pair.

B1: 5'FAM-idu_2 duplex (dsDNA)
DNA 1: AAAGATAACATT
DNA 2: AATGTUATCTT
modifications: dU at position 6 of strand 2; converted to abasic site (beta-anomer deoxyribose) in the product complex, no density for uracil
On to B1, for which the binding result was “binds”.
